These results are taken from patent US6613746 (GENERAL HOSPITAL, dated 2003).

Test [1] addresses native constant domain of human IgG1 coexpressed with fucosyltransferase (human, UniProt P01857-1 99-330 = IgG part). As to the kind of experiment: not described.
Test [2] concerns the target T1, ELAM-Rg, soluble ELAM-1-IgG1 chimera (ELAM-1 extracellular domain fused to hinge, CH2 and CH3 domains of … (human, UniProt P16581 22-556, limits assumed)).
T1 construct: extracellular domain; Made in COS cells, recovered on protein A-agarose; appeared as disulfide-linked dimers; In adhesion assays it was captured on dishes coated with goat anti-human IgG; also called ELAM-1-Rg; ELAM-1-IgG1 fusion protein; not shown: human IgG1 hinge, CH2 and CH3 domains (genomic fragment of Aruffo et al., Cell 61:1303, 1990)
T1 sequence (looked up): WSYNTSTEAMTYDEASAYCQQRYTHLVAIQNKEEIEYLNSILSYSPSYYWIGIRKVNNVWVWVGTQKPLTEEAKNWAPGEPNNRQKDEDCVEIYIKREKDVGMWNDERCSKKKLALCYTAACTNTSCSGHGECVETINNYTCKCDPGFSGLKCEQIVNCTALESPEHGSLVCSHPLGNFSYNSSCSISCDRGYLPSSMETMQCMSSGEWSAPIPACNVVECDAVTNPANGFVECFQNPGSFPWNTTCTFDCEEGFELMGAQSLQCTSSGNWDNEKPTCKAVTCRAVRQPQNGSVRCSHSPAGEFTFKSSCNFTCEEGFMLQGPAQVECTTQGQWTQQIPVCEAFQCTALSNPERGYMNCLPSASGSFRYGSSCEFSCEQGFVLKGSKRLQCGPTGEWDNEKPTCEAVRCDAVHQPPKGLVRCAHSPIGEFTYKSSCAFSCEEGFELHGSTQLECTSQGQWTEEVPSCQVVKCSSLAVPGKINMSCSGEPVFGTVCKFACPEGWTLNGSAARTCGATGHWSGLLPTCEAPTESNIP
The test can be described thus: solid phase: α1-AGP adsorbed to wells, ELAM-Rg at 1 µg/ml, radioiodinated goat anti-human IgG, gamma counter. As to the method: Amniotic fluid fucosyltransferase was isolated by affinity chromatography and evaluated for its ability to convert α_1-AGP into an ELAM-1 ligand as follows. α(1,3) fucosyltransferase was isolated from concentrated amniotic fluid by fetuin-agarose chromatography as previously described in Hanisch et al. (*Carbohydr. Res.* 178:23, 1988) and Mitsakos et al. (*Biol. Chem. Hoppe-Seyler* 369:661, 1988). 0.8 μCi GDP^14C-fucose (225 Ci/mole) and 100 μg of bovine α_1-AGP (Sigma, St. Louis, Mo.) were added to a reaction mix containing 25 mM Tris-HCl pH 7.0, 35 mM MgCl_2 and 1 mM ATP in a final volume of 120 μl. The reaction was allowed to proceed for 24 h. at 37°, at which time approximately 10% of the ^14C-labeled fucose had been incorporated into TCA-insoluble material. Unincorporated label was removed by centrifugal ultrafiltration (Centricon 10, Amicon, Danvers, Mass.). 20 μl of a 1:5 dilution of the labelled material, or 10 μl of a 1:5 dilution of a similarly constituted reaction mixture lacking labelled GDP-fucose, was adsorbed to plastic dishes (as described above) or to 96 well microtiter plates (Falcon 3911, Becton Dickinson, Oxnard, Calif.). […] Following washing, labelled antibody binding was measured in a gamma counter. Results shown in FIG. 9 are expressed as the mean±standard deviation of quadruplicate determinations and are representative of two independent experiments.

B1: ELAM-1 (form in this assay not stated) (receptor, UniProt P16581 22-556, looked up)
chain: WSYNTSTEAMTYDEASAYCQQRYTHLVAIQNKEEIEYLNSILSYSPSYYWIGIRKVNNVWVWVGTQKPLTEEAKNWAPGEPNNRQKDEDCVEIYIKREKDVGMWNDERCSKKKLALCYTAACTNTSCSGHGECVETINNYTCKCDPGFSGLKCEQIVNCTALESPEHGSLVCSHPLGNFSYNSSCSISCDRGYLPSSMETMQCMSSGEWSAPIPACNVVECDAVTNPANGFVECFQNPGSFPWNTTCTFDCEEGFELMGAQSLQCTSSGNWDNEKPTCKAVTCRAVRQPQNGSVRCSHSPAGEFTFKSSCNFTCEEGFMLQGPAQVECTTQGQWTQQIPVCEAFQCTALSNPERGYMNCLPSASGSFRYGSSCEFSCEQGFVLKGSKRLQCGPTGEWDNEKPTCEAVRCDAVHQPPKGLVRCAHSPIGEFTYKSSCAFSCEEGFELHGSTQLECTSQGQWTEEVPSCQVVKCSSLAVPGKINMSCSGEPVFGTVCKFACPEGWTLNGSAARTCGATGHWSGLLPTCEAPTESNIP
On to B1, for which, in test [1], the binding result is on record as “no binding”.

B2: bovine α1-acid glycoprotein fucosylated in vitro with amniotic fluid α(1,3)fucosyltransferase and GDP-fucose (other, UniProt Q3SZR3 19-202, looked up)
chain: QSPECANLMTVAPITNATMDLLSGKWFYIGSAFRNPEYNKSARAIQAAFFYLEPRHAEDKLITREYQTIEDKCVYNCSFIKIYRQNGTLSKVESDREHFVDLLLSKHFRTFMLAASWNGTKNVGVSFYADKPEVTQEQKKEFLDVIKCIGIQESEIIYTDEKKDACGPLEKQHEEERKKETEAS
modifications: N-linked glycans fucosylated in vitro (sialyl-Le^X determinants)
notes: Adsorbed to plastic or to microtiter wells; also called in vitro-fucosylated α1-acid glycoprotein; enzymatically-fucosylated α1-AGP
Take B2: in test [2], the binding result is reported as “binds”.
